According to US20230158109A1, “USE OF CD83 IN COMBINATION THERAPIES” (Colmmune, Inc., priority 2006, published 2023):
“Also recorded” adds a separate entry of the source.

Assays:
[1] = tested on: C57BL/6 Hearts in BALB/c Recipients; test: Intra-abdominal heterotopic heart transplantation, graft survival, C57BL/6 to BALB/c; type: in vivo, mouse; details: sCD83 100 μg i.p. daily day -1 to 7, then every other day to day 28, tacrolimus 8 mg/kg/day oral, MMF 80 mg/kg/day oral
Method: Treatment with tacrolimus was by daily oral administration of a subtherapeutic dose of 8 mg/kg/day, and treatment with MMF was by daily oral administration of a low dose of 80 mg/kg/day.
In further experiments, transplant recipients were treated with a shorter course of administrations and a different route of administration.

[2] = tested on: C3H Hearts in BALB/c Recipients; test: Heterotopic heart transplantation, graft survival, C3H to BALB/c; details: sCD83 100 μg i.p. daily day -1 to 28, sirolimus 2 mg/kg oral day 0-14, anti-CD45RB 100 μg i.v. day 0-14
Method: (§2) Hearts were removed from donor mice as indicated and transplanted into the peritoneal cavity of recipient mice (i.e., heterotopic transplantation). Recipient mice were treated as indicated, with some treatments beginning prior to transplantation. Survival of the allograft was monitored and scored as follows: “A,” beating strongly; “B,” mild decline in the intensity of pulsation; “C,” noticeable decline in the intensity of pulsation; “D,” complete cessation of cardiac impulses. Mean survival time of the transplanted tissue was determined for each treatment.
In a first set of experiments, C3H donor mice and BALB/c recipient mice were used. In this set of experiments, sCD83 treatment began on day −1 (i.e., the day prior to transplantation) and lasted until day 28; each day, 100 μg of sCD83 was administered to each mouse by intraperitoneal injection. Sirolimus treatment began on day 0 (i.e., the day of transplantation) and continued until day 14; each day, 2 mg/kg of sirolimus was administered orally to each mouse. Anti-CD45RB treatment began on day 0 and continued until day 14; each day, 100 μg of anti-CD45RB (BioExpress, Inc., West Lebanon, New Hampshire) was administered to each mouse intravenously.

[3] = tested on: C3H Hearts in C57BL/6 Recipients; test: Heterotopic heart transplantation, graft survival, C3H to C57BL/6
Method: as §2
In a further set of experiments, C3H mouse hearts were transplanted into the peritoneal cavity of C57BL/6 mice (results shown in Table 3 and FIG. 7). […] Other treatments included subtherapeutic doses of either anti-CD45RB monoclonal antibody (“mAb”) (i.e., 100 μg/mouse every day from days 0 through 14 by intravenous injection) or sirolimus (i.e., 2 mg/kg every day from days 0 through 14 by oral administration (“p.o.”)).

spleen cells = test: KLH re-stimulation assay, CD83 window of effectiveness; type: in vivo, CBA mice; details: sCD83 100 μg 10 times every second day; KLH after 11 days; spleen cells ten days later
Method: Mice were evaluated to determine the period of time after administration of CD83 in which a subject would be tolerized to another administered antigen. Soluble CD83 (100 μg) was administered to CBA mice by injection 10 times every second day. After 11 days, treated animals were immunized with keyhole limpet hemocyanin (KLH, 10 μg). Ten days later, spleen cells were removed and re-stimulation assays were performed as described in International patent publication WO 2004/046182, the contents of which are incorporated by reference.

mDCs = test: TNF-α and activation markers in mDCs of PBMCs stimulated with LPS and IFN-γ; type: cell-based, cynomolgus monkeys; details: PBMCs incubated overnight with sCD83; LPS 1 μg/ml and IFN-γ 100 U/ml for 6 hours
Text: We wished to examine the in vitro functional properties of human sCD83 on peripheral blood DCs, monocytes, and T cells. Mature DCs (“mDCs”) from cynomolgus monkeys were identified using FACS with four-color staining as cells that were HLA-DR positive, lineage negative (i.e. CD3, CD20, CD14, and CD16 negative), and CD11c positive. Intracellular TNF-α, IL-6, and surface markers CD83, CD80, CD86, and CCR5 (which are increased in activated, mature DCs) were also monitored.
(§1) To evaluate the effect of sCD83 on mDCs, isolated PBMCs (1×10^6 cells) from cynomolgus monkeys were incubated overnight with sCD83. Cells were stimulated with LPS (1 μg/ml) and IFN-γ (100 U/ml) for 6 hours. Intracellular TNF-α levels and surface markers were detected in mDCs using FACS. Results representative of one out of three experiments are shown in FIG. 11; results were expressed as % positive cells and mean fluorescence units (MFU).

[4] = tested on: T cells stimulated with allogeneic mature dendritic cells; test: Regulatory T cell generation by sCD83-treated allogeneic dendritic cells; type: cell-based, cynomolgous monkeys; details: DCs treated with sCD83 50 μg/ml; different DC:T ratios
Method: Regulatory T cells were also prepared using dendritic cells prepared from cynomolgous monkeys, as follows. Cynomolgous monkey myeloid dendritic cells were generated from CD14^+ monocyte cells in the presence of GM-CSF and IL-4 for 7 days; soluble CD83 at 50 ug/ml was added to some cultures on days 3 through 7, and a maturation cocktail of IL-1(3, IL-6, TNF-α and PGE-2 was added on days 5 through 7. T cells (1×10^6/ml) were isolated by negative selection and stimulated at different ratios with the allogeneic mature dendritic cells that had been either treated or untreated with sCD83 (50 μg/ml). Cells were then stained to identify regulatory T cells (i.e. CD4^+CD25^+ Foxp3^+ cells) and analyzed by FACS.

dendritic cells = details: soluble CD83 4 μg/ml in final maturation step, cited from earlier work
CD4+ T cells = test: Regulatory T cell generation from purified CD4+ T cells; type: cell-based, cynomolgus monkeys; details: CD4+ T cells stimulated for 6 days
Text: To evaluate the effect of sCD83 on CD4^+ T cells, these cells were purified from cynomolgus monkeys and then stimulated in the presence or absence of sCD83 or anti-CD28 mAb for 6 days. Cells were then stained to identify regulatory T cells (i.e., CD4^+CD25^+ Foxp3^+ cells) and analyzed by FACS.

[5] = tested on: B cells of transplant recipient; test: Ex vivo IgM and IgG production by transplant recipient B cells; design: species or system mouse; details: C3H heart in C57BL/6; sCD83 100 μg daily i.p.; B cells day 8, LPS, 72 hours
Method: IgM & IgG production: C57B1/6 mice were given a heterotopic cardiac allograft from a C3H mouse. Mice then were left untreated or were treated with a daily dose of 100 μg of sCD83 by intraperitoneal injection. Mice were then sacrificed on day 8, which was approximately the mean survival time of untreated mice. B cells were harvested from the spleens of recipient mice and cultured at 2×10^6 B-cells/well with 20 ug/mL LPS (to induce antibody production, with no added sCD83). After 72 hours of culture, supernatants were harvested and IgM and IgG production measured by ELISA.
Eight days after transplantation (when the transplant would typically be rejected in untreated mice), the mice were sacrificed. B cells were purified from recipient mice, cultured, and stimulated with LPS. After 72 hours of culture, supernatants were collected and IgM and IgG production was measured using ELISA.

monocytes = test: TNF-α and activation markers in monocytes of PBMCs; type: cell-based, cynomolgus monkeys; details: PBMCs incubated overnight with sCD83
Method: as §1, with “monocytes,” for “mDCs,”, “sCD83 (1×10^6 cells).” for “sCD83. Cells were stimulated with LPS (1 μg/ml) and IFN-γ (100 U/ml) for 6 hours.”, “monocytes” for “mDCs”, “12;” for “11;”

[6] = tested on: B cells of transplant recipient; test: Ex vivo proliferation of transplant recipient B-cells; design: species or system mouse; details: C3H heart in C57BL/6; sCD83 100 μg daily i.p.; B cells day 8, stimulated with LPS
Method: Antibody Production Protocols for ex vivo Work: B cell proliferation: C57B1/6 mice were given a heterotopic cardiac allograft from a C3H mouse. Mice were then left untreated or were treated with a daily dose of 100 μg of sCD83 by intraperitoneal injection. Mice were then sacrificed on day 8, which was approximately the mean survival time of untreated mice. B-cells were then harvested from the mouse spleens and pure populations of 10^5 B-cells/well were cultured with 2 μg/mL of LPS to stimulate the cells (with no added sCD83). After 48 hours of culture, ^3H-thymidine was added, and after an additional 18-20 hours of culture, the cells were harvested and ^3H-thymidine incorporation was measured.
Eight days after transplantation (when the transplant would typically be rejected in untreated mice), the mice were sacrificed. B cells were purified from recipient mice, cultured, and stimulated with LPS. ^3H-thymidine incorporation was measured as counts per minute (cpm).

[7] = tested on: mouse immunostimulatory dendritic cells and mouse T cells; test: Allogenic MLR assay with murine BM-DCs and T cells; type: cell-based
Method: C57/BL6 mice and BALB/C mice (male or female; Charles River, Wiga, Sulzfeld, Germany) were used at the ages of between 1 and 4 months. Generation of bone-marrow-derived dendritic cells (“BM-DCs”) was performed as described in Lutz et al. (1999) J. Immunol. Meth. 223: 77. RPMI 1640 (Life Technologies, Karlsruhe, Germany) was supplemented with 100 U/ml penicillin (Sigma), 100 μg/ml streptomycin (Sigma), 2 mM L-glutamine (Sigma), […] (Sigma), and 10% heat-inactivated filtered FCS (PAA, Colbe, Germany). GM-CSF was used at 200 U/ml (PrepoTech/Tebu, Rocky Hill, N.J.) on days 0, 3, 6 and 8 of the incubation period.
An allogenic MLR assay was performed as follows: CD4^+ and CD8^+ T cells were isolated from inguinal and […] lymph nodes of BALB/C mice and co-cultured (2×10^5 cells/well) for 3 days with BM-DCs (at different ratios) that had been processed through day 9 of the preparation protocol for BM-DCs. Culture was in 96-well culture dishes, and the media was 200 microliters RPMI 1640 supplemented with 100 U/ml penicillin, 100 µg/ml streptomycin, 2 mM L-glutamine, […], and 10% heat-inactivated filtered FCS. […] The culture supernatants were harvested onto glass fiber filters using an Inotech 1H-110 harvester (Inotech, Dottikon, Switzerland), and filters were counted in a Wallac 1450 microplate counter (Wallac, Turku, Finnland).

[8] = tested on: spleen cells (lymphocytes); test: KLH restimulation of spleen cells from sCD83-treated EAE mice; type: in vivo, mouse; details: sCD83 100 μg daily for ten days, KLH 28 days after last injection, spleen cells ten days later
Method: In order to induce EAE, mice were immunized with a peptide derived from myelin oligodendrocyte glycoprotein (MOG), a constituent of the myelin sheath surrounding neurons of the central nervous system, and with pertussis toxin (see, e.g., Zinser et al. (2004) J. Exp. Med. 200: 345-351). Beginning ten days later, the mice were inoculated with soluble CD83 (100 μg) every day for ten days. 28 days after the last injection of soluble CD83, mice were injected subcutaneously with keyhole limpet hemocyanin (“KLH,” 10 μg/mouse). Ten days later, spleen cells were removed from the mice and restimulated with different doses of KLH. Lymphocyte proliferation in response to this stimulation was measured by [^3H]-thymidine incorporation.

[9] = tested on: donor-specific allo-antibody (IgM, IgG); test: Allo-antibody in transplant recipient sera (staining of donor splenocytes); type: in vivo, mouse; details: C3H heart in C57BL/6; sera eight days after transplantation
Method: In these experiments, sera were collected from transplant recipients (from control-treated, sCD83-treated and treatment-naïve individuals). Splenocytes were removed from the transplant donor(s) and incubated with the transplant recipient sera. The binding of antibodies from the allo-anti sera to the surface of the transplant donor splenocytes was monitored selectively using antibodies specific for the Fc-fragments of mouse IgM and IgG. […] Stained cells can be analyzed using FACS.
In the transplantation procedure, hearts were removed from C3H mice and transplanted into C57BL/6 mice, which were then either treated with sCD83 or left untreated. Sera were collected from the C57BL/6 transplant recipients eight days after transplantation (the approximate time when untreated mice would typically reject the transplant (i.e., show full tissue rejection)). This recipient sera was then used to stain splenocytes from the C3H donors, and allo-antibody binding was detected with FITC-conjugated antibodies specific to either the anti-IgG or anti-IgM Fc-fragment. […] Sera from untreated transplant recipients was also able to stain C3H-donor-derived splenocytes above control levels.

[10] = sCD83 100 μg i.p. daily days 1-7 then q.o.d. days 8-16, sirolimus 2 mg/kg p.o. days 0-14, anti-CD45RB mAb 100 μg i.v. days 0-14

With `C=CC[C@@H]1/C=C(\C)C[C@H](C)C[C@H](OC)[C@H]2O[C@@](O)(C(=O)C(=O)N3CCCC[C@H]3C(=O)O[C@H](/C(C)=C/[C@@H]3CC[C@@H](O)[C@H](OC)C3)[C@H](C)[C@@H](O)CC1=O)[C@H](C)C[C@@H]2OC` [Tacrolimus, tacrolimus, reference compound] as the molecule, how does the “MST” value [1] read?
The value was 16.3 ± 1.0 days.

Which results are given for `CO[C@H]1C[C@@H]2CC[C@@H](C)[C@@](O)(O2)C(=O)C(=O)N2CCCC[C@H]2C(=O)O[C@H]([C@H](C)C[C@@H]2CC[C@@H](O)[C@H](OC)C2)CC(=O)[C@H](C)/C=C(\C)[C@@H](O)[C@@H](OC)C(=O)[C@H](C)C[C@H](C)/C=C/C=C/C=C/1C` [Sirolimus, sirolimus, reference compound]?
MST [2]: 21.3 ± 6.2 days; MST [3, 10]: 16.7 ± 2.1 days

B1: sCD83: recombinant extracellular domain of human CD83 cleaved from GST fusion, with four extra amino acids (Gly-Ser-Pro-Gly) at the amino terminal (protein, listed as Homo sapiens)
chain: GSPGTPEVKVACSEDVDLPCTAPWDPQVPYTVSWVKLLEGGEERMETPQEDHLRGQHYHQKGQNGSFDAPNERPYSLKIRNTTSCNSGTYRCTLQDPDGQRNLSGKVILRVTGCPAQRKEETFKKYRAE
modifications: printed: Gly-Ser-Pro-Gly; (1)..(125) Extracellular domain of human CD83
notes: recombinant extracellular domain of human CD83 cleaved from GST fusion, with four extra amino acids (Gly-Ser-Pro-Gly) at the amino terminal
Which results are given for B1?
Tolerization to KLH (re-stimulation assay) (spleen cells): not tolerized to the antigen; In vitro production of TNF-α by mDCs (mDCs): suppressed; Surface expression of mDC activation markers CD83, CD86, CCR5, and CD80 (mDCs): suppressed; MST [2]: 10.0 ± 1.4 days; Regulatory T cells generated by dendritic cells [4]: increased numbers of regulatory T cells; MST [1]: 15.8 ± 1.0 days; CD14 positive cells (dendritic cells; compared with normally matured DCs): increase; Cell surface expression of CD80 (dendritic cells; normally matured DCs 96%): 66%; Cell surface expression of CD83 (dendritic cells; normally matured DCs 96%): 30%; Generation of regulatory T cells (CD4+CD25+ Foxp3+ cells) (CD4+ T cells): promoted the generation of regulatory T cells; Ex vivo antibody production (IgM and IgG, ELISA) [5]: suppresses; In vitro production of TNF-α by monocytes (monocytes): moderately suppressed; Surface expression of monocyte activation markers (monocytes): moderately suppressed; Acute rejection / graft acceptance (in words) ([3]; sCD83 100 μg): reduced symptoms of acute rejection; MST [3, 10]: 10.7 ± 1.5 days; MST ([3]; sCD83 266 ug): 14.7 ± 0.6 days; MST ([3]; sCD83 400 ug): 15 ± 1.0 days; Ex vivo B-cell proliferation (3H-thymidine incorporation) [6]: suppresses; Cluster formation between dendritic cells and T cells [7]: inhibited; Ability of murine immunostimulatory dendritic cells to stimulate T cells ([7]; [3H]-thymidine): inhibited in a concentration-dependent manner; Lymphocyte proliferation in response to KLH ([3H]-thymidine incorporation) [8]: did not induce long-lasting, global immunosuppression; Allo-antibody activity (donor-specific binding of IgM or IgG) [9]: low allo-antibody activity; also recorded: can prevent the induction of an allo-antibody response
